Reference: patent US20150299263A1 (FACTOR THERAPEUTICS, published 2015)
Where no end group is shown, it is not given here.

Key:
[1] = target: T1, Human receptor grade IGFBP-5 (insulin-like growth factor binding protein 5) (human, UniProt P24593 21-272); test: VN-peptide array, ligand overlay, immunoblot/ECL
T1 construct: Bought recombinant protein, overlaid in solution on the VN-peptide array

[2] = target: T2, Human receptor grade IGFBP-3 (insulin-like growth factor binding protein 3) (human, UniProt P17936 28-291); test: VN-peptide array, ligand overlay, immunoblot/ECL
T2 construct: Bought recombinant protein, overlaid in solution on the VN-peptide array
T2 sequence (P17936 28-291 limits assumed): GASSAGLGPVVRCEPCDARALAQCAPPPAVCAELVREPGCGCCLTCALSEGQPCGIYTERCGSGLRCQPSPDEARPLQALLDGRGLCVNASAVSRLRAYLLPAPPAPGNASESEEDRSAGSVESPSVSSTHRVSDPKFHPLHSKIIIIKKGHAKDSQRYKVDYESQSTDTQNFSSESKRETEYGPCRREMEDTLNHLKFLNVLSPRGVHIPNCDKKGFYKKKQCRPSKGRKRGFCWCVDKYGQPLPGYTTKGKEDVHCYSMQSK

[3] = target: T3, Human receptor grade IGF-II (insulin-like growth factor II) (human, UniProt P01344 25-91); test: VN-peptide array, ligand overlay, immunoblot/ECL, TotalLab spot intensity
T3 construct: Bought recombinant protein, overlaid in solution on the VN-peptide array
T3 sequence (P01344 25-91 limits assumed): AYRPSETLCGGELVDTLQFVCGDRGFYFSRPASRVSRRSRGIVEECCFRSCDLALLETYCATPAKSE
Procedure: Methanol or ethanol was used to enhance the rehydration of peptide spots that might be hydrophobic. The peptides spotted onto the membranes were activated by incubating in 3 mL of 70% ethanol for five mins. The membranes were subsequently washed three times, 10 minutes each, in 10 mL TBS (Tris Buffered Saline; 8 g NaCl, 0.2 g KCl and 6.1 g Tris Base into 1000 mL of milliQ water, pH 7) with gentle rocking. Membrane blocking was performed by incubating in 10 mL casein-based membrane blocking buffer (MBS; Sigma-Aldrich) overnight at 4° C. The following day, the membranes were washed twice, 10 minutes each, in 10 mL TBS-T (TBS+0.05% Tween-20; pH 7).
Ligands used to test binding to VN-peptides were IGFBP-3, IGFBP-5 and IGF-II. For ligand binding, four separate solutions of 1 μg/mL ligand in 10 mL MBS buffer were prepared and each membrane was incubated in one of the four ligand solutions overnight at 4° C., with gentle rocking. […] The following day, the membranes were washed three times, 10 minutes each, in 10 mL TBS-T.
The binding of the ligands to peptides within the membrane was detected using immunoblotting. The membranes were incubated overnight at 4° C. with 10 mL primary antibody solution (in MBS buffer) targeting the respective ligands. The antibodies used were anti-IGFBP-3 (1:10,000), anti-IGFBP-5 (1:10,000) and anti-IGF-II (1:5000) to detect IGFBP-3, IGFBP-5 and IGF-II respectively. The following day, the membranes were washed three times, 10 minutes each, in 10 mL TBS-T and incubated with 10 mL HRP-conjugated secondary IgG antibody diluted 1:15,000 in MBS buffer for 1 hour at room temperature. Following a further three washes of 10 minutes each, the peptide spots were visualized using ECL. The membranes were exposed onto x-ray films and developed using a film processor (AGFA CP 1000), or were imaged directly using the ChemiDoc™ XRS system (BioRad).

[4] = target: T2, Human receptor grade IGFBP-3 …; test: rests on the VN-peptide array
[5] = target: T3, Human receptor grade IGF-II …; test: rests on the VN-peptide array
[6] = target: T3, Human receptor grade IGF-II …; test: VN-peptide array, ligand overlay, immunoblot/ECL

T1 sequence (P24593 21-272 limits assumed): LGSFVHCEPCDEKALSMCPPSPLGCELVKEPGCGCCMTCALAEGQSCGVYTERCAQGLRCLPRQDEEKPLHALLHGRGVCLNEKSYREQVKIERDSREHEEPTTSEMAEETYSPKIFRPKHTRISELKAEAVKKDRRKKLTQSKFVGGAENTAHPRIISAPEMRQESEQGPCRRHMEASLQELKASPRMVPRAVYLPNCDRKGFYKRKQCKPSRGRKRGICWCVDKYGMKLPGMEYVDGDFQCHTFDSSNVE

B1: VN-peptide 1B (array grid A14) (peptide)
peptide: DELCSYYQSCCTDYTA
modifications: not fully specified (N-terminus); cysteine pairing not given here; also: free end capped by acetylation, immobilised on cellulose membrane (SPOT synthesis)
[1]
  binding result: binds
[2]
  binding result: binds
[3]
  Intensity (against -ve control): 12 fold over negative controls

B2: VN peptide P8 (RVNLRTRRVDTVDPPYPRS) (peptide)
peptide: RVNLRTRRVDTVDPPYPRS
notes: Free synthetic peptide (Mimotopes) in the migration and growth assays; The array carried only its overlapping 16-mers 8A-8D; also called Peptide 8; motif-8 mimic
[4]
  binding result: binds
[5]
  binding result: binds

B3: Non-binding negative control VN-peptide (KTYLFKGSQYWRFEDG) (peptide)
peptide: KTYLFKGSQYWRFEDG
modifications: also: capped by acetylation and immobilised on array, free peptide in migration assays
notes: On the array it was immobilised and capped by acetylation; in the migration assays it was a free peptide; also called Pneg; negative peptide
[1]
  binding result: no binding (tested: 1 µg/mL ligand)
[2]
  binding result: no binding (tested: 1 µg/mL ligand)
[6]
  binding result: no binding (tested: 1 µg/mL ligand)
